Measurements from publication PMC3401278 (ACS Chemical Biology, 2012).
Where two headings read alike, the source gives them in different places. Where no end group is shown, it is not given here. The star is where a group is joined. FITC = O=C1OC2(c3ccc(O)cc3Oc3cc(O)ccc32)c2ccc(NC(=S)*)cc21; βAla = NCCC(=O)O

Experiments:
E. coli His6-LpxD [1] = target: T1, E. coli His6-LpxD (Escherichia coli, UniProt P21645); assay: biochemical; type: binding
E. coli LpxA = E. coli LpxA (Escherichia coli, UniProt P0A722); assay: Fluorescence polarization competition binding assay, LpxA
LpxA = LpxA (Escherichia coli, UniProt P0A722); assay: Continuous fluorescent acyltransferase inhibition assay; type: biochemical, E. coli; details: pH 7.5
E. coli His6-LpxD [2] = target: T1, E. coli His6-LpxD; assay: Fluorescence polarization direct binding of FITC-labeled peptide to His6-LpxD; details: at up to 180 μM LpxD
[3] = target: T2, E. coli His6-LpxD (UDP-3-O-(R-3-hydroxyacyl)glucosamine N-acyltransferase) (E. coli, UniProt P21645 1-341); assay: fluorescence polarisation
T2 sequence (looked up): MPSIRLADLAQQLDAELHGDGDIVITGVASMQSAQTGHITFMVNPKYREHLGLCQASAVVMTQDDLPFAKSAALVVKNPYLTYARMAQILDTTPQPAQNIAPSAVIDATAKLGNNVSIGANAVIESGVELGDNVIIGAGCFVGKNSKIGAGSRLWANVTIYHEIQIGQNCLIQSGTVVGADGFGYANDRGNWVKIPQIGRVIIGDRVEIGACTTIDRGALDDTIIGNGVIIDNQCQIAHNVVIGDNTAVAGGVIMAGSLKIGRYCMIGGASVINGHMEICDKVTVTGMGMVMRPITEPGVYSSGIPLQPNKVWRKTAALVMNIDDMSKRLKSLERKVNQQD

[4] = target: T3, E. coli LpxA (UDP-N-acetylglucosamine acyltransferase), native (E. coli, UniProt P0A722 1-262); assay: fluorescence polarisation
T3 sequence (looked up): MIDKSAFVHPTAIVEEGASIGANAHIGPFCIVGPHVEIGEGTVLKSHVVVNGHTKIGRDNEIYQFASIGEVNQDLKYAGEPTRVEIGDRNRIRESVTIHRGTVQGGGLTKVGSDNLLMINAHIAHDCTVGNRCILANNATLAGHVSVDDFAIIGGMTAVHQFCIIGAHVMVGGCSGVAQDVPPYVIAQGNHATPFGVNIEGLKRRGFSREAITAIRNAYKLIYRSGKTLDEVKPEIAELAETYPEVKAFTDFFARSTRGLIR

[5] = target: T2, E. coli His6-LpxD …; assay: fluorescence polarisation; remark: listed apart in the source

Molecule: CC[C@H](C)[C@H](NC(=O)[C@@H]1CCCN1C(=O)[C@H](CC(=O)O)NC(=O)[C@H](CC(C)C)NC(=O)[C@H](CCSC)NC(=O)[C@H](Cc1c[nH]c2ccccc12)NC(=O)CNC(=O)[C@H](CO)NC(=O)[C@@H](N)CO)C(=O)N[C@@H](C)C(=O)NCC(=O)N[C@@H](CCCCN)C(=O)N[C@@H](Cc1c[nH]c2ccccc12)C(=O)N[C@@H](CO)C(=O)N[C@@H](CCCNC(=N)N)C(N)=O [P920]
- Kd (E. coli His6-LpxD [1]): > 300 µM

Molecule: SENNFMLPLLPL-NH2 [RJPXD34]
- Kd (E. coli LpxA): > 300 µM
- LpxA IC50 (LpxA): did not inhibit

Molecule: β-alanyl-fluorescein
- ΔmP with LpxD, fluorophore alone (E. coli His6-LpxD [2]): ~ 26 mP

B1: RJPXD33 (TNLYMLPKWDIP-NH2) (peptide)
peptide: TNLYMLPKWDIP-NH2
- Kd [3]: 6.5 ± 0.2 µM
- Kd [4]: 22 ± 2.1 µM

B2: FITC-RJPXD33 (FITC-(βA)TNLYMLPKWDIP-NH2) (peptide)
peptide: {FITC-βAla}-TNLYMLPKWDIP-NH2
SMILES: CC[C@H](C)[C@H](NC(=O)[C@H](CC(=O)O)NC(=O)[C@H](Cc1c[nH]c2ccccc12)NC(=O)[C@H](CCCCN)NC(=O)[C@@H]1CCCN1C(=O)[C@H](CC(C)C)NC(=O)[C@H](CCSC)NC(=O)[C@H](Cc1ccc(O)cc1)NC(=O)[C@H](CC(C)C)NC(=O)[C@H](CC(N)=O)NC(=O)[C@@H](NC(=O)CCNC(=S)Nc1ccc2c(c1)C(=O)OC21c2ccc(O)cc2Oc2cc(O)ccc21)[C@@H](C)O)C(=O)N1CCC[C@H]1C(N)=O
- Kd [5]: 0.6 ± 0.04 µM

B3: RJPXD31 (QHFMVPDINDMQ-NH2) (peptide)
peptide: QHFMVPDINDMQ-NH2
- Kd [3]: 41 ± 3 µM
- Kd [4]: 119 ± 9 µM

B4: RJPXD34 (SENNFMLPLLPL-NH2) (peptide)
peptide: SENNFMLPLLPL-NH2
- Kd [3]: 31 ± 1.5 µM
